Source: paper PMC2671838

Molecular target: Porphyromonas gingivalis heme-binding protein HmuY, heme-bound form (holo-HmuY) (Porphyromonas gingivalis)
Experiment: crystal structure; holo-HmuY (heme-bound), sitting-drop vapor diffusion at 20°C, 26 mg/mL protein in 5 mM Tris/HCl pH 8.0, reservoir 2.4 M (NH4)2SO4, 0.1 M MES pH 6.0; tetragonal crystals, one dimer per asymmetric unit; tetramer created by a local and a crystallographic two-fold axis

Porphyromonas gingivalis heme-binding protein HmuY, heme-bound form (holo-HmuY) (natural protein)
stoichiometry N: 4
